Patent EP2835135A2, “Means and methods for treating pseudomonas infection” (Max-Planck-Gesellschaft zur Förderung der Wissenschaften …, priority 2013, dated 2015)
Bridge positions count the residues as written; N and C are the ends. Square brackets hold non-standard residues; d marks the D form. Ends that are not written are not given here. S5 = C=CCCC[C@](C)(N)C(=O)O

Columns and labels:
[1] = biological target: T1, 14-3-3 (Homo sapiens, UniProt P63104); assay: Fluorescence polarization (FP) assay: fluorescein-labeled peptides titrated with unlabeled 14-3-3 protein; format: binding; details: three cross-link architectures (C8-linker), Figure 6B
T1 sequence (P63104 1-245): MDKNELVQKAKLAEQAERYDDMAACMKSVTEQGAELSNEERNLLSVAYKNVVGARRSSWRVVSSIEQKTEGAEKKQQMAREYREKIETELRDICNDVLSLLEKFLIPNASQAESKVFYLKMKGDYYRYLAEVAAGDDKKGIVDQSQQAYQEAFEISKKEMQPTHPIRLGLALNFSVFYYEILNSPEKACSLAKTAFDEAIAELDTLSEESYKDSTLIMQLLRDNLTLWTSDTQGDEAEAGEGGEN
Source text: A fluorescence polarization (FP) assay was used to determine the affinity of fluorescein-labeled truncated versions of this peptide to 14-3-3 (Table 1). […] The labeled peptides were titrated with unlabeled 14-3-3 protein.
The binding affinities were again determined using FP.
The binding affinity of the non-classic cross-linked peptides was investigated using FP (Figure 6C).

[2] = biological target: T1, 14-3-3; assay: FP competition experiment: labeled peptide preincubated with 14-3-3 and titrated with unlabeled WT peptide; format: binding; details: FITC-labeled peptide 20 nM, 14-3-3 4.0 µM, Figure 7
Source text: The figures show: • Figure 1: (A) Schemetic representaion of ExoS' role in P. aeruginosa infection. (B) Crystal structure of 14-3-3 binding domain of ExoS bound to 14-3-3 (PDB 2002). • Figure 2: (A) Concept for an antibiotic strategy against P. aeruginosa. (B) Overlaid structures of 14-3-3 in complex with 14-3-3 binding domains of ExoS (PDB 2002) and endogenous phosphorylated sequences (PDB 1QJA, 1YWT, 2B05, 2BR9, 2BTP, 2C1J, 2C1N, 2C63, 2C74, 2NPM, 2IQV, 3LW1). • Figure 3: Alignment of 14-3-3 residues involved in inhibitor binding. • Figure 4: Dual assay for the identification of inhibitors of 14-3-3/ExoS interaction that would not affect interactions of 14-3-3 with endogenous binding parterns. L^1 and L^2 as well as L^3 and L^4 are chosen in order to allow a fluorescence polarization readout, ALPHA screen ("Amplified Luminescent Proximity Homogeneous Assay") or HRTF screen ("homogeneous time resolved fluorescence"; both ALPHA and HRTF screens are very sensitive homogeneous assay technologies that allow the screening of interactions in a proximity sensitive fashion). • Figure 5: (A) Crystal structure of ^420[…]^430 (sticks) complexed to 14-3-3 ζ ΔC (spacefill). The 2FC - F0 density is scaled to 1σ (grid). (B) Superimposition of truncated ExoS peptide (^420[…]^430) with the previously reported ExoS peptide (^416[…]^430, PDB 2002). […]

Molecule	affinity for 14-3-3 compared to the starting sequence (WT) [1]	displacement of the labeled peptide by unlabeled WT peptide [2]
γ cross-linked peptide: ExoS 11-mer with γ cross-link (i,i+3) at positions Leu426 and Leu423 (R5 and S5, respectively), C8-linker (QGLXDAXDLAS; non-natural residues)	significantly decreased binding affinity	–
α cross-linked peptide: ExoS 11-mer with α cross-link (i,i+4): residues Leu426 and Leu422 replaced with S5, C8-linker (QG[S5]LDA[S5]DLAS; staple 3-7)	significantly decreased binding affinity	–
CC(C)C[C@H](NC(=O)CNC(=O)[C@@H](N)CCC(N)=O)C(=O)N[C@@H](CC(C)C)C(=O)N[C@@H](CC(=O)O)C(=O)N[C@@H](C)C(=O)N[C@@H](CC(C)C)C(=O)N[C@@H](CC(=O)O)C(=O)N[C@@H](CC(C)C)C(=O)N[C@@H](C)C(=O)N[C@@H](CO)C(=O)O	–	displacement by unlabeled WT peptide
